Data on 5 molecules can be found in PMC7870846, “Incorporation of sensing modalities into de novo designed fluorescence-activating proteins” (Nature Communications, 2021).

As a reminder, the Kd is the free concentration of one partner at which half of the binding sites on the other are occupied at equilibrium, for simple one-to-one binding.

Assay [1] is described as follows: Ca2+-responsive mFAP Ca2+ titrations. Type of assay: binding. The method, then: In measuring Ca^2+ affinity of mFAPs on a Synergy Neo2 hybrid multi-mode reader (Fig. 4d, e, f and Supplementary Figs. 10c, f, i, 11c, f, i, 13c, f, i, 16b), large-scale purified proteins[49] were aliquoted in technical triplicate to a final concentration of 500 nM with 5.00 μM DFHBI in eleven serial dilutions ( 10 dilution factor) of CaCl2 (Sigma Aldrich) starting from either 900 mM or 90.0 mM CaCl2 (diluted using high-salt Tev cleavage buffer) including a twelfth condition without CaCl2. Final volumes were 200 μL in flat bottom, black polystyrene, non-binding surface 96-well microplates (Corning 3650). Fluorescence endpoints were measured using excitation wavelength λex = 484 nm and emission wavelength λem = 508 nm. Background fluorescence endpoints of wells with identical chromophore and CaCl2 concentrations lacking protein (substituted for equivalent volumes of high-salt Tev cleavage buffer) were measured in technical triplicate, averaged per condition, and subtracted from protein measurement averages of the same conditions.
For Ca^2+ titrations of EF4n_mFAP2a and EF4n_mFAP2b (Supplementary Fig. 13c), a small amount of Chelex 100 sodium form (Sigma Aldrich) was added to purified protein (produced by large-scale protein purification and SEC purification[49]) and nutated at 4 °C overnight. EF4n_mFAP2a was aliquoted in technical triplicate to a final concentration of 8.00 μM with 80.0 μM DFHBI and EF4n_mFAP2b was aliquoted in technical triplicate to a final concentration of 6.25 μM with 43.4 μM DFHBI, in eleven serial dilutions ( 10 dilution factor) of CaCl2 starting from 9.00 mM or 4.00 mM CaCl2 (diluted using high-salt Tev cleavage buffer pre-treated with Chelex 100) including a twelfth condition without CaCl2. Final volumes were 25.0 μL in flat bottom, black polystyrene, non-binding surface 96-well half-area microplates (Corning 3686) or 200 μL in flat bottom, black polystyrene, non-binding surface 96-well microplates (Corning 3650). Fluorescence endpoints were measured for EF4n_mFAP2a using excitation wavelength λex = 478 nm and emission wavelength λem = 520 nm, and for EF4n_mFAP2b using excitation wavelength λex = 484 nm and emission wavelength λem = 508 nm. Background fluorescence endpoints of wells with identical chromophore and CaCl2 concentrations lacking protein (substituted for equivalent volumes of high-salt Tev cleavage buffer) were measured in technical triplicate, averaged per condition, and subtracted from protein measurement averages of the same conditions. For non-linear least squares fitting to obtain Kd values, means were fit to a single-binding site isotherm function where Ca^2+-binding sites were modeled independently with a Hill coefficient of 1.

The nature of assay [2]: Photophysical characterization: absorbance, excitation/emission spectra, extinction coefficients, quantum yields. Type of assay: physicochemical. On the procedure: Protein preparation: mFAP2a, mFAP2b, and mFAP10 were produced by large-scale protein purification and SEC purification, and dialyzed overnight into DPBS that was adjusted to pH 7.40 using NaOH.
Chromophore preparation: DFHBI (Lucerna) and DFHBI-1T (Lucerna) were dissolved to 20.0 mM in 100% DMSO, and diluted in DPBS (pH 7.40) to measure absorbances on a Jasco V-750 spectrophotometer at peak absorbance wavelengths (417 nm for DFHBI and 422 nm for DFHBI-1T). Following background subtraction of identical buffer without chromophore, Beer’s Law was used to calculate the molar chromophore concentrations of the stock solutions using previously reported extinction coefficients.
Preparation of protein–chromophore complexes: For quantum yield measurements, 1.00 μM, 836 nM, or 919 nM chromophore solutions in DPBS (pH 7.40) at 4.00 mL final volumes were prepared for the following eight conditions: DFHBI only, DFHBI-1T only, 43.5 µM 6xHis-mFAP10 with DFHBI, 43.5 µM 6xHis-mFAP10 with DFHBI-1T, 134 μM 6xHis-mFAP2a with DFHBI, 134 μM 6xHis-mFAP2a with DFHBI-1T, 206 μM 6xHis-mFAP2b with DFHBI, and 206 μM 6xHis-mFAP2b with DFHBI-1T.
Extinction coefficients: Absorbance spectra of protein–chromophore complexes were first measured with a Thermo Scientific BioMate 3S UV–Vis Spectrophotometer (1 nm interval, 800 nm min^−1). The extinction coefficients were then calculated using Beer’s Law:12 A=ε⋅b⋅c, where A is peak absorbance, ε is extinction coefficient, b is path length (1 cm), and c is concentration (1.00 μM, 836 nM, or 919 nM).
Relative quantum yield: A Perkin-Elmer LS-B Luminescence Spectrophotometer (10 nm bandwidth, 1 nm interval, 100 nm min^−1) was used. The fluorescence emission spectra of the protein–chromophore complexes (in DPBS, pH 7.40) and reference dye Acridine Yellow G (in methanol) were first obtained, and the quantum yield was then calculated using the equation[53]:13 ϕc=ϕr⋅1−10^−Ar(λex)/1−10^−Ac(λex)⋅∫Fc(λ)⋅dλ/∫Fr(λ)⋅dλ⋅nc2/nr2, where ϕ is quantum yield, A(λex) is absorbance at the excitation wavelength λex ( λex = 440 nm), F is fluorescence emission, n is refractive index of the solution (1.3350 for DPBS at pH 7.40 and 1.3284 for methanol), and the subscripts “c” and “r” refer to the protein–chromophore complex measured and the reference dye, respectively. […]
Absolute quantum yield: An integrating sphere instrument (Hamamatsu C9920-12) (6 nm excitation bandwidth, 1 nm interval) and a high-sensitivity photonic multi-channel analyzer (Hamamatsu C10027-01) were used to measure a light emission spectrum. Absolute quantum yields were measured for solutions of protein–chromophore complexes in DPBS (pH 7.40) in which ≥95% of the total chromophore was occupying the protein-binding pocket (Table 1). […]

Assay [3] can be described thus: Fluorescence intensity assays of mFAP variants. Type of assay: biochemical. On the procedure: To measure fluorescence intensities of the phenolate form of chromophores, fluorescence was measured on a Synergy Neo2 hybrid multi-mode reader (BioTek) in flat bottom, black polystyrene, non-binding surface 96-well microplates (Corning 3650). Fluorescence intensity was measured in triplicate by exciting at λex = 484 nm and measuring fluorescence emission at λem = 505 nm (or λem = 511 nm for clones harboring the W27 mutation) (Supplementary Fig. 1g, h). The W27 mutation redshifts the peak emission wavelength from λem = ~505 nm to λem = ~511 nm, presumably due to the W27 indole ring donating a hydrogen bond to the imidazolinone moiety of the deprotonated state of DFHBI, which stabilizes the chromophore conjugated π–electron system in the excited state causing the redshift in emission. Fifteen microliters of small-scale purified protein[49] was combined with 185 μL of Na2HPO4-citrate (pH 7.36) buffer supplemented with 150 mM NaCl and 108 nM DFHBI for a final concentration of 100 nM DFHBI. In measuring the excitation spectra from λem = 525 nm of each clone in triplicate (Supplementary Fig. 1i), 30.0 μL of large-scale purified protein[49] was combined with 170 μL of 25.0 mM Tris (pH 8.00) supplemented with 100 mM NaCl and 914 nM DFHBI for a final concentration of 7.77 μM protein and 777 nM DFHBI. In measuring the fluorescence intensity at λex = 484 nm and λem = 509 nm of each clone in triplicate (Supplementary Fig. 1j), 30.0 μL of large-scale purified protein[49] was combined with 170 μL of 25.0 mM Tris (pH 8.00) supplemented with 100 mM NaCl and 653 nM DFHBI for a final concentration of 5.55 μM protein and 555 nM DFHBI. In measuring fluorescence intensity at λex = 468 nm and λem = 530 nm of each clone in technical triplicate (Supplementary Fig. 1k), 24.0 μL of 35.4 µM large-scale purified protein[49] was combined with 1.00 μL of 1.25 µM DFHBI or 1.00 μL of 1.25 µM DFHBI-1T (Lucerna) (from […] chromophore stock solutions dissolved in 0.5% DMSO and 99.5% high-salt Tev cleavage buffer [25.0 mM Tris, 100 mM NaCl, pH 8.00]) for final concentrations of 34.0 μM protein and 50.0 nM chromophore. The mFAP9–DFHBI complex had ~1.1-fold the fluorescence intensity of the mFAP10–DFHBI complex, and the mFAP9–DFHBI-1T complex had ~0.75-fold the fluorescence intensity of the mFAP10–DFHBI-1T complex (Supplementary Fig. 1k). In collecting fluorescence emission spectra by exciting fluorescence at λex = 484 nm and collecting fluorescence emission at λem = 495–650 nm (Supplementary Fig. 6b), and in measuring fluorescence endpoints in techincal triplicate at unique peak excitation and emission wavelengths (Supplementary Fig. 6c), 195 μL of large-scale purified protein[49] was combined with 5.00 μL of 25 mM Tris (pH 8.00) supplemented with 100 mM NaCl and 40.0 μM DFHBI for a final concentration of 10.0 μM protein and 1.00 μM DFHBI.
In measuring fluorescence intensity of small-scale purified proteins[49] (Supplementary Table 1), wells were excited at λex = 488 nm for DFHBI and DFHBI-1T and λex = 505 nm for DFHO, and fluorescence emission measured at λem = 510 nm for DFHBI and DFHBI-1T and λem = 545 nm for DFHO. […]

Assay [4] in a line: In vitro chromophore titration with DFHBI (fluorescence, single-binding site isotherm fit). The method, then:
Fluorescence endpoints were measured on a Synergy Neo2 hybrid multi-mode reader (BioTek) in flat bottom, black polystyrene, non-binding surface 96-well microplates (Corning 3650). In measuring chromophore-binding affinities (Fig. 1d, e), mFAP2, mFAP2a, and mFAP2b, and mFAP10 were produced by large-scale protein purification and SEC purification. Proteins were aliquoted in eight technical replicates in 200 μL final volumes to 20.0 nM final concentration in ten serial dilutions ( 10 dilution factor) of DFHBI starting from 31.6 μM DFHBI or 31.6 μM DFHBI-1T final concentrations, including an eleventh condition without chromophore. Fluorescence was excited at λex = 468 nm and fluorescence emission measured at λem = 530 nm. Background fluorescence endpoints of wells with identical chromophore concentrations but purified protein replaced with an identical volume of high-salt Tev cleavage buffer were measured, and fluorescence endpoints subtracted from those measured with protein. Background-subtracted data were averaged and the means normalized from 0 to 1 and fit to a single-binding site isotherm function using non-linear least squares fitting to obtain a fitted Kd value (Table 1), and the fit scaled to the maximum mean value (Fig. 1d, e).

Residue numbers refer to the chain shown, from its start.

B1: EF1p2_mFAP2b: positively allosteric Ca2+-responsive mFAP, one EF-hand motif (protein)
chain: SRAAQLLPGTWQVTMTNEDGQTSQGQWHFQPRSPYTMDIVAQGTISDGRPIVGYGKATVKTPDTLDIDITYPSLGNIKAQGQITMDSPTQFKWDAHYKGDKDGDGYISAAEAAAQGLTGTLQRQE
On to B1, for which, in assay [1] (Ca2+ titration with excess DFHBI), the “Ca2+-responsiveness / allostery between DFHBI and Ca2+ binding” value is on record as “positive allostery”. For the same molecule, the Kd in assay [1] (excess DFHBI compared to protein, Hill coefficient of 1) was 2.3 mM.

B2: mFAP2a: mFAP2 variant, "a" for affinity (protein)
chain: SRAAQLLPGTWQATFTNEDGQTSQGQWHFQPRSPYTMDIVAQGTISDGRPIVGYGKATVKTPDTLDIDITYPSLGNIKAQGQITMDSPTQFKWDATTKGENDFHGRLTGTLQRQE
For the molecule B2, the “brighter fluorescence with DFHBI-1T than DFHBI” value in assay [2] was ~ 2.5 fold. Besides, the “brighter fluorescence than mFAP2b” value in assay [3] (low-DFHBI concentration (555 nM)) was ~ 1.3 fold. Moreover, in assay [4], the “higher affinity for DFHBI than DFHBI-1T” value is reported as ~ 39 fold.

B3: mFAP10: variant from the IN2 combinatorial library (protein)
chain: B2 chain with W27I, W93F
For B3, in assay [2], the “brighter fluorescence with DFHBI-1T than DFHBI” value is listed as ~ 12 fold. Also, the “higher affinity for DFHBI than DFHBI-1T” value in assay [4] is listed as ~ 2.6 fold.

B4: mFAP2.3: brightest variant of loop7 library (protein)
chain: B2 chain with A13V, F15M, W27M, I39V, A57V, I67V, W93F
With B4, the “increase in fluorescence intensity from the phenolate form of DFHBI from mFAP2.2” value in assay [3] (pH 7.36) was ~ 1.1 fold.

B5: mFAP3: brightest DFHO-binding variant (protein)
chain: B2 chain with Y71W, A79G, A95G
As for B5, the “fluorescence intensity with DFHO, lower (dimmer) than mFAP2b with DFHBI” value in assay [3] (10.0 µM DFHO vs 10.0 µM DFHBI) is ~ 10 fold.
